According to US20180282412A1 (ASIA BIOTECH PTE, published 2018):

Columns and labels:
CTLA-4 [1] = biological target: T1, CTLA-4 (Homo sapiens (Human), UniProt P16410 36-161); assay: ELISA on coated CTLA-4, HRP anti-human kappa
T1 construct: also called CD28 family member CTLA-4
T1 sequence: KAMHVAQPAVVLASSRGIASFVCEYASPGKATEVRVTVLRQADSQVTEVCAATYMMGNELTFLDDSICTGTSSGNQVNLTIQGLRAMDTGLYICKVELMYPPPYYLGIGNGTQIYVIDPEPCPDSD
Description: (§1) The specificity of anti-PD-1 antibodies was examined by detecting their binding to CD28 family members ICOS, CTLA-4 and CD28 (R&D System) using standard ELISA. […] Finally, TMB was added as a substrate for HRP, and the absorbance was measured at 450 nm.

[2] = biological target: T2, PD-1-Fc fusion protein (extracellular region of human PD-1 fused to human Fc) (human); assay: solution-equilibrium ELISA (Holash method): antibody preincubated with PD-1-Fc, free antibody captured on coated PD-1-Fc
T2 construct: unlabelled when coated on plates or immobilized; also called human PD-1-Fc; PD-1-Fc-biotin
Description: (§2) Finally, TMB was added as a substrate for HRP, and the absorbance was measured at 450 nm.

[3] = biological target: T3, full-length human PD-1 expressed on transfected CHO-K1 cells (CHO/PD-1) (human, UniProt Q15116 25-288); assay: flow cytometry on CHO/PD-1 cells, FITC anti-human antibody
T3 construct: also called PD-1-transfected CHO cells; cell surface PD-1
Description: After 1 hour incubation, the cells were washed and an FITC labelled anti human antibody was incubated for 1 hour. Then the cells were washed and the flow cytometric analysis was performed using a FACScan flow cytometry.

[4] = biological target: T2, PD-1-Fc fusion protein (extracellular …); assay: SPR (Biacore), PD-1-Fc immobilized, antibody as analyte
Description: (§3) Affinity constants were calculated from the ratio of the rate constants.

[5] = biological target: T2, PD-1-Fc fusion protein (extracellular …); assay: SPR (Biacore), ligand PD1-Fc-biotin, sample hu67D9, 25 C, fit 1:1 Binding
Description: as §3

[6] = biological target: T2, PD-1-Fc fusion protein (extracellular …); assay: ELISA on coated human PD-1-Fc, HRP anti-human kappa
Description: as §2

[7] = biological target: T4, Cynomolgus monkey PD-1-Fc (Cynomolgus monkey, UniProt B0LAJ3 25-170); assay: ELISA on coated Cynomolgus monkey PD-1-Fc, HRP anti-human kappa
T4 construct: not shown: The Fc part and any linker
Description: as §2

[8] = biological target: T2, PD-1-Fc fusion protein (extracellular …); assay: ELISA on coated PD-1-Fc, HRP anti-human kappa
mouse PD-1-Fc [9] = biological target: T5, mouse PD-1-Fc (mouse, UniProt Q02242 25-169); assay: ELISA on coated mouse PD-1-Fc, HRP anti-human kappa
T5 construct: extracellular domain; not shown: Fc part
T5 sequence (looked up): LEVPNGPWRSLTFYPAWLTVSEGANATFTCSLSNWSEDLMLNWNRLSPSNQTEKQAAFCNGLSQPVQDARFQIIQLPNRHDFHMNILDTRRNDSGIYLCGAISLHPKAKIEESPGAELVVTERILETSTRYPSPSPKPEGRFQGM
Description: as §2

[10] = biological target: T2, PD-1-Fc fusion protein (extracellular …); assay: ELISA on coated PD-1-Fc, HRP anti-human kappa; remark: listed apart in the source
CD28 [11] = biological target: T6, CD28 (Homo sapiens (Human), UniProt P10747 19-152); assay: ELISA on coated CD28, HRP anti-human kappa
T6 construct: also called CD28 family member CD28
Description: as §1

[12] = biological target: T2, PD-1-Fc fusion protein (extracellular …); assay: competition ELISA on coated PD-1-Fc, competitor biotin labelled Nivolumab, HRP-avidin
ICOS [13] = biological target: T7, ICOS (Homo sapiens (Human), UniProt Q9Y6W8 21-140); assay: ELISA on coated ICOS, HRP anti-human kappa
T7 construct: also called CD28 family member ICOS
T7 sequence: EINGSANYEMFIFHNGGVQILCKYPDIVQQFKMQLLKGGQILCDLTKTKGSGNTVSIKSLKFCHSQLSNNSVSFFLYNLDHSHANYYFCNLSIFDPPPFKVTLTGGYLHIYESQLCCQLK
Description: as §1

[14] = biological target: T2, PD-1-Fc fusion protein (extracellular …); assay: competition ELISA on coated PD-1-Fc, blocked ligand biotin labelled PDL1-Fc, HRP-avidin
[15] = biological target: T3, full-length human PD-1 expressed on …; assay: flow cytometry competition on CHO/PD-1 cells, competitor FITC labelled Nivolumab at a sub-saturating concentration
[16] = biological target: T3, full-length human PD-1 expressed on …; assay: flow cytometry blocking assay, 10 ug/ml antibody with biotin-PD-L1-Fc (blocked ligand) on CHO/PD-1 cells, Avidin-PE
Description: Then the mixture was added to the CHO/PD-1 cells. After 1 hour, the cells were washed and binding of was detected with Avidin-PE. Flow cytometric analysis was performed using a FACScan flow cytometry (Becton Dickinson).

CTLA-4 [17] = biological target: T1, CTLA-4; assay: ELISA on coated CTLA-4, HRP anti-mouse kappa
Description: as §1

ICOS [18] = biological target: T7, ICOS; assay: ELISA on coated ICOS, HRP anti-mouse kappa
Description: as §1

CD28 [19] = biological target: T6, CD28; assay: ELISA on coated CD28, HRP anti-mouse kappa
Description: as §1

[20] = biological target: T2, PD-1-Fc fusion protein (extracellular …); assay: ELISA on coated human PD-1-Fc, HRP anti-mouse kappa
Description: as §2

[21] = biological target: T2, PD-1-Fc fusion protein (extracellular …); assay: ELISA on coated PD-1-Fc, HRP anti-mouse kappa
mouse PD-1-Fc [22] = biological target: T5, mouse PD-1-Fc; assay: ELISA on coated mouse PD-1-Fc, HRP anti-mouse kappa
Description: as §2

[23] = biological target: T4, Cynomolgus monkey PD-1-Fc; assay: ELISA on coated Cynomolgus monkey PD-1-Fc, HRP anti-mouse kappa
Description: as §2

B1: anti-PD-1 humanized antibody hu67D9 (antibody, human IgG4 S228P, kappa, V domains shown)
VH: EVQLVESGGGLVQPGGSLRLSCAASGFTFSTYGMSWVRQAPGKGLEWVATISGGGRDTYYPDTVKGRFTISRDNSKNTLYLQMSSLRAEDTAVYYCARQDYGNYVWFAYWGQGTLVTVSS
VL: DIVLTQSPASLAVSPGQRATISCRASESVDSYGISFMHWFQQKPGQPPQLLIYSTSNRGSGVPARFSGSGSGTDFSLTINPVEADDTANYFCQQSQEVPWTFGQGTKVEIKR
notes: also called humanized 67D9; humanized Ab
In the case of B1, the binding result (CTLA-4 [1]) is reported as “no binding (tested: 1000 ng/ml)”, the Kd [2] is reported as 0.0154 nM and the “EC50 (read off the curve)” value [3] is reported as roughly 20 ng/mL. The Kd [4] was 0.00321 nM, the koff [5] was 2.77e-05 s⁻¹ and the kon [5] was 8.63e+06 M⁻¹ s⁻¹. For the same binder, the “EC50 (read off the curve)” value [6] was roughly 10 ng/mL, the “EC50 (read off the curve)” value [7] was roughly 10 ng/mL and the “EC50 (read off the curve)” value [8] was roughly 10 ng/mL. The binding result (mouse PD-1-Fc [9]) was “no binding (tested: 1000 ng/ml)”, the “EC50 (read off the curve)” value [10] was roughly 10 ng/mL and the binding result (CD28 [11]) was “no binding (tested: 1000 ng/ml)”. For the same binder, the “IC50 (read off the curve)” value [12] was roughly 5000 ng/mL, the binding result (ICOS [13]) was “no binding (tested: 1000 ng/ml)” and the “IC50 (read off the curve)” value [14] was roughly 2 ng/mL. For the same binder, the “IC50 (read off the curve)” value [15] was roughly 5000 ng/mL.

B2: 67D9 chimeric antibody (c67D9) (antibody, human IgG4 S228P, kappa, V domains shown)
VH: EVILVESGGGLVKPGGSLKVSCAASGFTFSTYGMSWVRQTPEKRLEWVATISGGGRDTYYPDTVKGRFTISRDNAKNTLYLQMSSLRSEDTALYYCARQDYGNYVWFAYWGQGTLVTVSA
VL: not shown
notes: Human kappa light chain (detected with anti-human kappa); also called chimeric Ab
For B2, the binding result (CTLA-4 [1]) was “no binding (tested: 1000 ng/ml)”, the Kd [2] was 0.0169 nM and the binding result [16] was “binds”. For the same binder, the “EC50 (read off the curve)” value [6] was roughly 10 ng/mL, the “EC50 (read off the curve)” value [7] was roughly 10 ng/mL and the “EC50 (read off the curve)” value [8] was roughly 10 ng/mL. B2: no binding (tested: 1000 ng/ml) (mouse PD-1-Fc [9]); no binding (tested: 1000 ng/ml) (CD28 [11]); no binding (tested: 1000 ng/ml) (ICOS [13]).

B3: 67D9 (mouse anti-PD-1 monoclonal antibody) (antibody, mouse IgG2a, V domains shown)
VH: EVILVESGGGLVKPGGSLKVSCAASGFTFSTYGMSWVRQTPEKRLEWVATISGGGRDTYYPDTVKGRFTISRDNAKNTLYLQMSSLRSEDTALYYCARQDYGNYVWFAYWGQGTLVTVSA
VL: not shown
notes: Purified from hybridoma supernatant by Protein G; also called mouse Ab
B3: no binding (tested: 1000 ng/ml) (CTLA-4 [17]); no binding (tested: 1000 ng/ml) (ICOS [18]); no binding (tested: 1000 ng/ml) (CD28 [19]). For the same binder, the Kd [2] was 0.0124 nM, the binding result [16] was “binds” and the “EC50 (read off the curve)” value [20] was roughly 10 ng/mL. The “EC50 (read off the curve)” value [21] was roughly 10 ng/mL, the binding result (mouse PD-1-Fc [22]) was “no binding (tested: 1000 ng/ml)” and the “EC50 (read off the curve)” value [23] was roughly 10 ng/mL.
